Patent US9394555B2, “Compositions comprising a polypeptide having cellulolytic enhancing activity and a dioxy compound and uses thereof” (priority 2010, dated 2016)

Tests used:
[1] = target: T1, T. aurantiacus GH61A polypeptide (Thermoascus aurantiacus, UniProt G3XAP7, N13Y); assay: Microcrystalline cellulose conversion assay II (Examples 10, 11), T. reesei CEL7A cellobiohydrolase I + A. oryzae CEL3A beta-glucosidase; assay type: biochemical; details: 72 hours, 50° C.
Description: A 5% microcrystalline cellulose slurry was prepared by addition of 2.5 g of AVICEL® PH101 to a graduated 50 ml screw-cap conical tube followed by approximately 40 ml of deionized water. Each conical tube was then mixed thoroughly by shaking/vortexing, and adjusted to 50 ml total with deionized water and mixed again. For samples containing dioxy compounds, a similar slurry was prepared by the addition of 100 mg of solid dioxy compound and 2.5 g of AVICEL® PH101 to a graduated 50 ml screw-cap conical tube followed by approximately 40 ml of deionized water. Each conical tube was then mixed thoroughly by shaking/vortexing, and adjusted to 50 ml total with deionized water and mixed again.
The dioxy compounds assayed include caffeic acid, dichlorophenolindophenol (DCPIP), ethyl gallate, gallic acid, 3,4-dihydroxybenzoic acid, pyrocatechol, pyrogallol, sinapinic acid (3,5 dimethoxy-4-hydroxy cinnamic acid), and tannic acid.
In all cases, the contents of the tube (5% microcrystalline cellulose slurry with or without 0.2% dioxy compound) were then quickly transferred to a 100 ml beaker and stirred rapidly with a magnetic stirrer. Five hundred μl aliquots of the 5% AVICEL® slurry were pipetted into wells of a 2.0 ml 96-deepwell plate (Axygen, Union City, Calif.) using a 1000 μl micropipette with a wide aperture tip (end of tip cut off about 2 mm from the base). One hundred μl of deionized water and 300 μl of 3.33 mM MnSO4-500 mM sodium acetate pH 5 were then added to each well. Enzyme mixtures were prepared and then added simultaneously to all wells in a volume of 100 μl, for a total of 1 ml in each reaction. […] All experiments reported were performed in triplicate.
Primary analysis of the hydrolysis reactions was performed using an AGILENT® 1100 HPLC with CHEMSTATION® software equipped with an AMINEX™ HPX-87H column. After approximately 4 days, the deep-well plate was removed from the incubator and chilled overnight to 4° C. The plate was then mixed well by inversion and briefly centrifuged at 52×g in a SORVALL® RT7 centrifuge for 10 seconds. Samples were then mixed by pipetting, and 200 μl from each well were transferred to a MULTISCREEN® HV centrifuge filter plate assembly. The centrifuge filter plate assembly was centrifuged at 2000 rpm in a SORVALL® RT7 centrifuge for 20 minutes. […] Sugars were detected using a refractive index detector with quantification by integration compared to purified sugar standards.
(§1) All HPLC data processing was performed using MICROSOFT EXCEL™ software. […] In this assay only glucose was measured since beta-glucosidase was at high levels in all samples but the controls. The degree of cellulose conversion was calculated using Equation 1. Triplicate data points were averaged and standard deviation was calculated.
The microcrystalline cellulose hydrolysis assay was performed as described in Example 10.
Data were collected and analyzed, as described in Example 10, after 72 hours of incubation at 50° C.

[2] = target: T1, T. aurantiacus GH61A polypeptide; assay: Phosphoric acid swollen cellulose (PASC) hydrolysis assay (Examples 18, 19); assay type: biochemical; details: T. aurantiacus GH61A polypeptide (20 mg/g) + A. oryzae CEL3A beta-glucosidase (20 mg/g), no gallic acid; 72 hours, 50° C.
Description: A 1% phosphoric acid swollen cellulose (PASC) slurry was prepared from AVICEL® PH101 using the protocol described by Zhang et al., 2006, Biomacromolecules 7: 644-648.
The 1.0% PASC slurry prepared as described in Example 17 was thoroughly resuspended by shaking, and quickly transferred to a 100 ml beaker and stirred rapidly with a magnetic stirrer. Five hundred μl aliquots of the 1.0% PASC slurry were pipetted into wells of a 2.0 ml 96-deepwell plate (Axygen, Union City, Calif., USA) using a 1000 μl micropipette with a wide aperture tip (end of tip cut off about 2 mm from the base). One hundred μl of 10 mM MnSO4-500 mM sodium acetate pH 5 were then added to each well. […]
Primary analysis of the hydrolysis reactions was performed using an AGILENT® 1100 HPLC with CHEMSTATION® software equipped with an AMINEX™ HPX-87H column. […] Sugars were detected using a refractive index detector with quantification by integration compared to purified sugar standards.
as §1, with “Percent” for “The degree of cellulose”, “calculated. […]” for “calculated.”
Data were collected and analyzed, as described in Example 18, after 72 hours of incubation at 50° C.

Row | Molecule | conversion (hydrolysis) of the microcrystalline cellulose ([1]; dioxy compound 0.1% w/w alone, no enzymes) | conversion of the microcrystalline cellulose ([1]; T. aurantiacus GH61A polypeptide (10 mg/g) + cellobiohydrolase I + beta-glucosidase (5 mg/g each), no dioxy compound) | conversion of PASC [2]
1 | O=C(O)c1cc(O)c(O)c(O)c1 [gallic acid] | no significant hydrolysis | – | –
2 | T. aurantiacus GH61A polypeptide: GH61A polypeptide having cellulolytic enhancing activity (SEQ ID NO: 14), recombinantly produced in Aspergillus oryzae JaL250 (protein, listed as Thermoascus aurantiacus) MSFSKIIATAGVLASASLVAGHGFVQNIVIDGKYYGGYLVNQYPYMSNPPEVIAWSTTATDLGFVDGTGYQTPDIICHRGAKPGALTAPVSPGGTVELQWTPWPDSHHGPVINYLAPCNGDCSTVDKTQLEFFKIAESGLINDDNPPGIWASDNLIAANNSWTVTIPTTIAPGNYVLRHEIIALHSAQNQDGAQNYPQCINLQVTGGGSDNPAGTLGTALYHDTDPGILINIYQKLSSYIIPGPPLYTG | – | 21.4±0.5% | 2.6±0.1%
